test: yeast display, Sf9 membrane polyspecificity reagent, FACS + sequencing; frameworks hold sequencing errors
In short: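 In a synthetic yeast display library (Saccharomyces cerevisiae BJ5465), nanobody expression was induced with galactose for 36–48 hours. FACS gates were set low and high (top ~1%) using anti-HA fluorescence for expression and streptavidin fluorescence for binding of the Sf9 membrane reagent. Each polyreactivity label is drawn from the gate of origin.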

Sequence	polyreactivity (PSR sort gate)
QVKLVESGGGLVQAGGSLRLICAASGNTFGPYDMGWYRQAPGKERQLVAGITSGGSTYYADSVKGSFTITRDNAKNTVYLQMNSLKPEDTAVYYCAADYYLWVYWYDYWGQGTQVTVSS	high polyreactivity
QVQLQESGGGLVQAGGSLRMSCAASGNIFDADIMGWYRQAPGKERELVASITDGRRTNYADSVKGRYTISRDSEKNTVYMQMNSLIPVDTAVYYCADIAYPVVPTYFDYDSDYFHWGQGTQVTVSS	high polyreactivity
QVQLVESGGGLVQAGGSLRLSCAASGSIFSANAMGWYRQAPGKERELVAAIRRTGGSTYYADSVKGRFTISRDNAKNTVYLQMNSLKPEDTAVYFCTKRHSILYEGGYDYWGQGTQVTVSS	low polyreactivity
QVQLVESGGGLVQAGGSLRLSCAASGSISTYYAMGWYRQAPGKERELVAAISKSGGSTYYADSVKGRFTISRDNAKYTVYLQMNSLKPEDTEVYYCAARYKGRAFWMDYWGQGTQVTVSS	high polyreactivity
QVQLVESGGGLVQAGGSLRLSCAASGRIFAYNAMGWYRQAPGKERELVAAITWSGDSTYYADSVKGRFTISRDNAKNSVYLQMNSLKPVDTAVYYCATDALFKTSTRWKYDYWGQGTQVTVSS	low polyreactivity
QVQLVESGGGLVQAGGSLRLSCAASGSTIVYYAMGWYRQAPGKERELVAAISGSGGSTYYADSVKGRFTISRDNAKNTVYLQMNSLKPEDTAVYYCAKSYGSHRKIRTSFGYWGQGTQVTVSS	high polyreactivity
QVQLVESGGGLVQAGGSLRLSCAASGRTFPGYAMGWYRQAPGKERELVAGISYRGGSTYYADSVKGRFTISRDNAKNTVYLQMNSLKPEDTAVYYCARDYSRHKGDYWGQGTQVTVSS	low polyreactivity
QVQLVESWGGLVQAGGSLRLSCAASGRTFKIYTMGWYRQAPGKERELVAAISRGGSTYYADSVKGRFTISRDNAKNTVYLQMNSLKPEDTAVYYCAVDLYYLSSASTRQVRRDYWGQGTQVTVSS	high polyreactivity
QGQLVESGGCLVQEGGSLRLSCAASGRIFLYYTMGWYRQAPGKERELVAAITRSGGSTYYADSVKGRFTISRDNAKNTVYLQMNSLQPVDTAVSYCNRAYVRYVPMNYWGQGTLVTVSS	high polyreactivity
QVKLVESGGGLVQAGGSLRLSCADSGRTFYYNTMGWYRQAPGKERELVADITISGGSTYYADSVKGRFTISRDNAKNTVYLQMKSLKPEDTAVYYCAAGWFSLSTAYYHKRVGYNYWGQGTQVTVSS	high polyreactivity
QVQLVESGGGLVQAGGSLRLSCAASGRIFLYYAMGWYRQAPGKERELVAAISRRGASTYYADSVKGRFTITRDNAKNTVYLQMNSLKPEDTAVYYCGSVPGKSGDYWGQGTQVTVSS	high polyreactivity
QVQLVESGGGLVQAGGSLRLSCAASGSTFGYNAMGWYRQAPGKERELVAAISYSGGSTSYADSVKGRFTLSRDNEKNTVYVQMNSLKPVDAAVYYCARESYSQYSSQALEGYGYWGQGTQVTVSS	low polyreactivity
QVQLVESGGGLVQAGGSLRLSCAASGRIFKRNTLGWYRQAPGKERELVAAITNSGITYYADSVKGRFTISRDNAKNTVYLQMNSLKPEDTAVYYCAARVIYYYGSGPYDYWGQGTQVTVSS	low polyreactivity
QVQLVESGGGLVQAGGSLRLSCAASGFIFYRYAMGWYRQAPGNERELVAAISRSGGSTYYADSVKGRFTISRDNAKNTVYLQMNSLKPEDTAVYYCATPGQRKLYLVNYLGQGTQVTVSS	low polyreactivity
QVQLVESGGGLVQAGGSLRLSCAASGFTFRYYAMGWFRQAPGKESELVAAITWSGGGTYYADSVKGRFTISRYNAKNTVYLQMNSLKPEDTAVYYCNVYKSHRHQAEYNYWGQGTKVTVSS	high polyreactivity
QVQLVESGGCLVQAGGSLRLSCAASGRTFAWYAMGWYRQAPGKERELVAAITNGGSTYYADSVKGRFTISRDNAKNTVYLQMNSLKPDDTAVYYCAAYYRSRHHGYDSWGQGTQVTVSS	low polyreactivity

Sequence	polyreactivity (PSR sort gate)
QVQLVESGGGLVQAGGSLSLMCAASGGIFPRYTRGWYRQAPGKEREMVASISRSGASTYYADSVKGRFTISRDNAKNTVYLQMNSLKTEDTAVYYCNARFVTGYWYIWENYWGQGTQVTVSS	high polyreactivity
QVQLQESGGGLVQAGGSLRLSCAASCTISQEDCMGWYRQAPGKVREFVAAIGLGSNTNYADSLKGRFTISRDNAKNTVYLQMNRLKPEDTAVYYCAVSVWQYSDHVYRGQGTQVTVSS	low polyreactivity
QDQLVESGGGLVQAGGSLRLSCAASGRIFNANTMGWYRQAPGKERELVARITWSGGGTYYADSVKGRFTISRDNAKNTVYLQMNCLKPEDTAVYYCAARLLIRYYYWGHGTQVTVSS	high polyreactivity
QVQLVESGGGLVQAGGSLRLSCAASGSIFTAYAMGWYRQAPGKERELVAAIRWNDGRTYYADSVKGRFTISRDNAKNTVYLQINSLKPEDTAVYYCAARYTDVTPGFAYYYWGQGTQVTVSS	high polyreactivity
HVQLVESGGGLVQAGGSLRLSCAASGGIFYGNVMGWYRQAPGKERELVADITSVGSTYYADSVKGRFTISRDNAKNTVYLQMNSLKPEDTAVYYCAAEPDHVADSHSGYDYWGQGTQVTVSS	low polyreactivity
EVQLVESRGGLVQAGGSLRLSSADSGLTFPYNTMGWYRQAPGTERELVAAITARGGRTYYADSVKGRFTISRDNAKNTVYLQMNSLKPEDTAVYYCNADRTRGYQRYDYWGQGTQVTVSS	high polyreactivity
QVQLVESGGGLVQAGGSLRLSCAASGSIFRYYAMGWYRQAPGKERESVADITSSGGSTYYADSVKGRFTISRDNAKNTVYLQMNSLKPEDTAVSYCAREDNLRHQSDSRYDYWGQGTQVTVSS	low polyreactivity
QVQLVESGGVLVQAGGSLRLSCAASGSIFILYAMGWYRQAPGKERELVAAISSTGTTYYADSVKGRFTISRDNAKNTVYLQMNSLKPEDTAVYYCATDEHSSGRTPYDYWGQGTQVTVSS	low polyreactivity
QVQLVESGGGLVQAGGSLRLSCAASGSIFRSYAMGWYRQSPGKERELVAAITRSGGSTYYADSVKGRFTISRDNAKNTVDLQMNSLKPEDTAVYYCAAEYYSYTWGWGHGYWGQGTQVTVSS	high polyreactivity
QVQLVESGGGLVQAGGSLRLSCAASGSNFIGYAMGWYRQEPGKERELVAAISNSGGRTYYADSVKGRFTISRDNAKNTVYLQMNSLKPEDTAVYYCNVAYRIPYRMDYWGQGTQVTVSS	high polyreactivity
QVQLVESGGGLVQAGGSLRLSCAASGFTFRRYAMGWYRQAPGKERELVAAISGRGGSTYYADSVKGRFTISRDTAKNTVYLQINSLKPEDTAVYYCNDDRYVRWTPGDYWGQGTQVTVSS	high polyreactivity
QVQLVESGGGLVQAGGSLRLSCAASGSIFARYTMGWYRQAPGKERELVARITSSGGSTYYADSVKGRFTISRDNAKNTVYLQMNSLKPEDTAVYYCNKAYRYYWRMEYWGQGTQVTVSS	high polyreactivity
QVQLVESGGGLVQAGGRLRLSCAASGFTFGYYTMGWYRQAPGKESELVASISRTGGRTYADSVKGRFTISRDNAKNTVFLQMNSLKPEDTAVYYCNRKKYFSYPSDYGYGYWGQGTQVTVSS	high polyreactivity
QVHLVESGGGLVQAGGSLRLSCAASGSIFAVNAMGWYRQAPGKERELVAVITSRGGSTYYADSVKGRFTISRDNAKNTVYLQMNSLKPEDTAVYYCAARPGAAGYKYYYWGQGTQVTVSS	high polyreactivity
QVQLVESVGGLVQAGGSLRLSCAASGRIFQYYAMGWYRQAPGKERELVAAITRSGGRTYYADSVKGRFTISRDNAKNTVYLQMNSLKPEDTAVYYCAARDWYYTMYYWGQGTQVTVSS	high polyreactivity
